Experimental data from patent US20210060185.

Experiments:
[1] = test system: T1, N-His Ana GvpC with ssrA degradation tag (engineered Anabaena flos-aquae GvpC, ClpXP-sensitive)
T1 sequence: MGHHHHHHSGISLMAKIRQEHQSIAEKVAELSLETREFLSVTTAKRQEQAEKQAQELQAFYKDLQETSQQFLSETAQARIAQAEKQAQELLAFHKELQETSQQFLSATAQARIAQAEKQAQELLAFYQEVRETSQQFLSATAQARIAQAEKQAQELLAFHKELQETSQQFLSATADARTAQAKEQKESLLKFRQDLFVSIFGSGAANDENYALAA

WT N-His-Ana-GvpC = test system: T2, WT N-His-Ana-GvpC
T2 sequence: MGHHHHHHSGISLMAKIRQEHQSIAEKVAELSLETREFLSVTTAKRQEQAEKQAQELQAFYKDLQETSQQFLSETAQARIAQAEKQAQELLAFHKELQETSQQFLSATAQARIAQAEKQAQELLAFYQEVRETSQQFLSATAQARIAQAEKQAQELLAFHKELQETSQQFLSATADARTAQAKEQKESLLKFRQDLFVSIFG

[2] = test system: dGvpC (Ana GvpC with SG-AANDENYALAA at the C-terminus, encoded in the acoustic sensor gene for ClpXP)

Substance	50% collapse pressure after ClpXP exposure (FIG. 9D) [1]	degradation on Coomassie-stained SDS-PAGE [1]	hydrostatic collapse midpoint shift (pressurized absorbance spectroscopy) [1]	increase in nonlinear CNR (FIG. 9E) [1]	nonlinear (x-AM) ultrasound contrast enhancement [1]	collapse pressure, ultrasound contrast and SDS-PAGE (WT N-His-Ana-GvpC)	nonlinear CNR with ClpXP induction (FIG. 10F) [2]	nonlinear ultrasound contrast in the mouse colon [2]
ClpXP in the reconstituted cell-free TX-TL system (purified Flag-ClpXdeltaNLinkedHexamer-His6 and ClpP from the pBEST-ClpP plasmid)	a reduction of “50% collapse” pressure from about 476 kPa to about 223 kPa	Gel electrophoresis performed after incubating GVSClpXP with this cell-free extract showed significant degradation of the engineered GvpC, compared to a negative control condition in which the extract was pre-treated with a protease inhibitor	a substantial weakening of the GV shell upon ClpX exposure, with the hydrostatic collapse midpoint shifting by nearly 250 kPa	FIG. 9E shows an 860% increase in CNR	a 17 dB enhancement in the nonlinear contrast produced by GVSClpXP at an acoustic pressure of 477 kPa, in response to ClpXP activity	Control GVs containing wild type GvpC showed no sensitivity to ClpXP		
ClpXP of E. coli Nissle 1917 (native, or ClpX and ClpP cloned from the Nissle genome under the pBAD promoter)							FIG. 10F shows a nonlinear CNR increase from 15.9 to 22.6	Cells induced to express this enzyme showed enhanced nonlinear contrast compared to cells not expressing ClpXP
